Columns and labels:
[1] = biological target: manually pulled Fn fibers (relaxed, fibrillar fibronectin from human plasma, 5% Fn-Cy5) (human) (UniProt P02751); test: displacement assay on relaxed manually pulled Fn fibers, competitor of FnBPA5-Alexa488
[2] = biological target: manually pulled Fn fibers (relaxed, fibrillar fibronectin from human plasma, 5% Fn-Cy5) (human) (UniProt P02751); test: titration of fluorescent peptide on relaxed manually pulled Fn fibers, confocal intensity ratio peptide/Fn-Cy5, Hill fit
[3] = biological target: soluble plasma fibronectin (Fn) isolated from human plasma (human) (UniProt P02751); test: fluorescence anisotropy titration, 100 nM labelled peptide, Fn 0 to 1.4 µM in PBS, one-site-binding model

Row | Substance | IC50 [1] [nM] | Kd [2] [nM] | Kd [3] [nM]
1 | natIn-FnBPA5 (cold labeled) (peptide) | 49 | – | –
2 | FnBPA5-Alexa488 (peptide) | – | 28 | 75

Reference: patent publication US20200181211A1
